Among the data in paper PMC13389011, “Expedient single-round selection of hyper-modified aptamer targeting insulin receptor from over-represented dually nucleobase-modified DNA libraries” are binding result and binding signal values, retold here.

B1: HIR-6_N (ssDNA)
DNA: CATGACGCTCACTGTATCTCGCGTTTAACGTAACAGCGATGTCTCTCATGATGTC
B2: HIR-8_N (ssDNA)
DNA: CATGACGCTCACTGTATCTCGCCTTTAACGTAAGAGCGATGTCTCTCATGATGTC
B3: HIR-6_T4 (XNA)
DNA: CGCTCACTGTATCTCGCGUUUAACGUAACAGCGAUGUCUCUCAUGAUGUC
modifications: DNA backbone; 7-deaza-7-(indolyl-ethyl)-dA (dAAIn) at 22,23,27,28,30,34,43,46; 5-(phenyl-ethynyl)-dU (dUEPh) at 19,20,21,26,35,37,39,41,44,47,49
B4: HIR-6_T3 (XNA)
DNA: CATGACGCTCACTGTATCTCGCGUUUAACGUAACAGCGAU
modifications: DNA backbone; 7-deaza-7-(indolyl-ethyl)-dA (dAAIn) at 27,28,32,33,35,39; 5-(phenyl-ethynyl)-dU (dUEPh) at 24,25,26,31,40
B5: HIR-6_T5 (XNA)
DNA: ACTGTATCTCGCGUUUAACGUAACAGCGAUGUCUCUCAUGAUGUC
modifications: DNA backbone; 7-deaza-7-(indolyl-ethyl)-dA (dAAIn) at 17,18,22,23,25,29,38,41; 5-(phenyl-ethynyl)-dU (dUEPh) at 14,15,16,21,30,32,34,36,39,42,44
B6: HIR-6_T6 (XNA)
DNA: TATCTCGCGUUUAACGUAACAGCGAUGUCUCUCAUGAUGUC
modifications: DNA backbone; 7-deaza-7-(indolyl-ethyl)-dA (dAAIn) at 13,14,18,19,21,25,34,37; 5-(phenyl-ethynyl)-dU (dUEPh) at 10,11,12,17,26,28,30,32,35,38,40
B7: HIR-6_T7 (XNA)
DNA: CGCTCACTGTATCTCGCGUUUAACGUAACAGCGAU
modifications: DNA backbone; 7-deaza-7-(indolyl-ethyl)-dA (dAAIn) at 22,23,27,28,30,34; 5-(phenyl-ethynyl)-dU (dUEPh) at 19,20,21,26,35
B8: HIR-6_T9 (XNA)
DNA: CGCTCACTGTATCTCGCGUUUAACGUAACAGCGAUGUCUC
modifications: DNA backbone; 7-deaza-7-(indolyl-ethyl)-dA (dAAIn) at 22,23,27,28,30,34; 5-(phenyl-ethynyl)-dU (dUEPh) at 19,20,21,26,35,37,39
B9: HIR-6_T2 (XNA)
DNA: CATGACGCTCACTGTATCTCGCGUUUAACGUAACAGCGAUGUCUC
modifications: DNA backbone; 7-deaza-7-(indolyl-ethyl)-dA (dAAIn) at 27,28,32,33,35,39; 5-(phenyl-ethynyl)-dU (dUEPh) at 24,25,26,31,40,42,44
B10: HIR-6_T8 (XNA)
DNA: ACTGTATCTCGCGUUUAACGUAACAGCGAU
modifications: DNA backbone; 7-deaza-7-(indolyl-ethyl)-dA (dAAIn) at 17,18,22,23,25,29; 5-(phenyl-ethynyl)-dU (dUEPh) at 14,15,16,21,30
B11: HIR-6_T1 (XNA)
DNA: CATGACGCTCACTGTATCTCGCGUUUAACGUAACAGCGAUGUCUCUCAUG
modifications: DNA backbone; 7-deaza-7-(indolyl-ethyl)-dA (dAAIn) at 27,28,32,33,35,39,48; 5-(phenyl-ethynyl)-dU (dUEPh) at 24,25,26,31,40,42,44,46,49
B12: HIR-6_M2 (XNA)
DNA: CATGACGCTCACTGTATCTCGCGUUUAACGUAACAGCGAUGTCTCTCATGATGTC
modifications: DNA backbone; 7-deaza-7-(indolyl-ethyl)-dA (dAAIn) at 27,28,32,33,35,39; 5-(phenyl-ethynyl)-dU (dUEPh) at 24,25,26,31,40
B13: HIR-6 (XNA)
DNA: CATGACGCTCACTGTATCTCGCGUUUAACGUAACAGCGAUGUCUCUCAUGAUGUC
modifications: DNA backbone; 7-deaza-7-(indolyl-ethyl)-dA (dAAIn) at 27,28,32,33,35,39,48,51; 5-(phenyl-ethynyl)-dU (dUEPh) at 24,25,26,31,40,42,44,46,49,52,54

The target in the first series is Human insulin receptor ectodomain (HIR) (Homo sapiens, UniProt P06213-2 28-944). The series can be described thus: FNBA; IB: PBS (1.5 mM KH2PO4, 8.1 mM Na2HPO4, 2.7 mM KCl, 137 mM NaCl) + 5 mM MgCl2, pH 7.4; MST +0.1% Pluronic F-127, 25 C; SPR 25 C; FNBA and BLI r.t. The note with it: protein: commercial; tags: His-tag; chain copies: 2; label: 5'-Cy5.
Sequence of Human insulin receptor ectodomain (HIR) (Homo sapiens, UniProt P06213-2 28-944) (P06213 other isoform, or with tags, fused parts or gaps): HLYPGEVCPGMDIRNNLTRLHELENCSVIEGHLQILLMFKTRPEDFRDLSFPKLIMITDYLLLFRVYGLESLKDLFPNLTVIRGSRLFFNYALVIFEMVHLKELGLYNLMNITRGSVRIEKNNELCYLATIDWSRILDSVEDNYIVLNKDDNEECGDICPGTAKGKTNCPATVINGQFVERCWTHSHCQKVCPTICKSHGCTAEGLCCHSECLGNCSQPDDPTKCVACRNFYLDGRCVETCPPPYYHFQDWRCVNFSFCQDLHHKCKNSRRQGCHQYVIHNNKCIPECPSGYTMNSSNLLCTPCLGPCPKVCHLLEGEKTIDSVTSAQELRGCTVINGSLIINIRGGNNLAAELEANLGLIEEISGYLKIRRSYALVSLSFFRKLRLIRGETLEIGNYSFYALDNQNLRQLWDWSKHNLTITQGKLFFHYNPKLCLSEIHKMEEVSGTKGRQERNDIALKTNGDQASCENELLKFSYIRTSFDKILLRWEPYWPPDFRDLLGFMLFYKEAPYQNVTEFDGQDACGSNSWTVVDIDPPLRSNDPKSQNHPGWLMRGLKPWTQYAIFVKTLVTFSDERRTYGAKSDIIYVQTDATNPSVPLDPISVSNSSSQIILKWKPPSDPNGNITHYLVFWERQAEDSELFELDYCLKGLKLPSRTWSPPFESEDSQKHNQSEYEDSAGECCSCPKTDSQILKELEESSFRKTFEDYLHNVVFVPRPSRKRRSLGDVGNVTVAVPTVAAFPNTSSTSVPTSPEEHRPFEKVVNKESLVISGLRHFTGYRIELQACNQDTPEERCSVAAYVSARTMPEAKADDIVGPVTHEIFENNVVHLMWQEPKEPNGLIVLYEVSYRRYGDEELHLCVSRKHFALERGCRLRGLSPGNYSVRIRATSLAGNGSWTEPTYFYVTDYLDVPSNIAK
B1: the binding result is “no binding”. Still for that read-out and setting: in the case of B2 it was “no binding”.

The next series deals with Human insulin receptor ectodomain (HIR) (Homo sapiens, UniProt P06213-2;P06213-2 28-746;751-944). Put plainly: fluorescent Ni-plate binding assay (FNBA); PBS (1.5 mM KH2PO4, 8.1 mM Na2HPO4, 2.7 mM KCl, 137 mM NaCl) with 5 mM MgCl2, pH 7.4; MST with 0.1% Pluronic F-127 at 25 C; FNBA at room temperature; high values mean tight binding. Conditions: protein: commercial; tags: His-tag; chain copies: 2;2; label: 5'-Cy5.
Sequence of Human insulin receptor ectodomain (HIR) (Homo sapiens, UniProt P06213-2;P06213-2 28-746;751-944) (P06213 other isoform, or with tags, fused parts or gaps, chain 1 of 2): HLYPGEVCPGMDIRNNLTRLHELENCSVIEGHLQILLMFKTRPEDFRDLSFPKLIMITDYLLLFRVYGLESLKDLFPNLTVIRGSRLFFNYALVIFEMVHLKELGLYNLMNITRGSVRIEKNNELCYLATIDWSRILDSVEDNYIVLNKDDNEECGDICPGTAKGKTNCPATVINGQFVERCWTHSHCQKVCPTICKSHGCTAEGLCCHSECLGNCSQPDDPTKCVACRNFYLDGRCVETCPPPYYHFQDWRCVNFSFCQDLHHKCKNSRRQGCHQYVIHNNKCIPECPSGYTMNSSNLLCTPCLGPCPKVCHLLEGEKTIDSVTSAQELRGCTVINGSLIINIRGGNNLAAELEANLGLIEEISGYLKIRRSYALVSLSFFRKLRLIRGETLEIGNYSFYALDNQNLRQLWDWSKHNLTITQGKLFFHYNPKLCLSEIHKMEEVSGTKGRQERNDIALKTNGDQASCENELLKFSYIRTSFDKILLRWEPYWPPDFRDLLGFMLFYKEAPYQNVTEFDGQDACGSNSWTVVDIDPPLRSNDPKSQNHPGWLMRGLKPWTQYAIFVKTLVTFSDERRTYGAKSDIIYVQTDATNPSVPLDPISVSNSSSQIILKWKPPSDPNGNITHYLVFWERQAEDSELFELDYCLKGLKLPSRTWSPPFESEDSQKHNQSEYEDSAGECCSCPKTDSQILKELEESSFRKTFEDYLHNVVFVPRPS
Sequence of Human insulin receptor ectodomain (HIR) (Homo sapiens, UniProt P06213-2;P06213-2 28-746;751-944) (P06213 763-956, chain 2 of 2): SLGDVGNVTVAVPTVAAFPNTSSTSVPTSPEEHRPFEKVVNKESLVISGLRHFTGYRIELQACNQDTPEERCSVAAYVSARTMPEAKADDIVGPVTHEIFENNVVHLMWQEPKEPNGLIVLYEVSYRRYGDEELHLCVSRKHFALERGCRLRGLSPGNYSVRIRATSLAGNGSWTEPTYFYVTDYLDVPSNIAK
Regarding B3, the binding signal came out at 44700 a.u. fluorescence. For the molecule B4, the binding signal came out at 19900 a.u. fluorescence. Molecule B5 displayed a binding signal of 45900 ± 733 a.u. fluorescence. B6 came in with a binding signal of 45500 a.u. fluorescence. In the case of B7, the binding signal stood at 16500 a.u. fluorescence. Still for that read-out and setting: in the case of B8 it was 24700 a.u. fluorescence; in that of B9, 30900 a.u. fluorescence; in that of B10, 13400 a.u. fluorescence. As for B11, the binding signal was 26300 a.u. fluorescence. Molecule B1 gave a binding signal of 184 ± 176 a.u. fluorescence. Still for that read-out and setting: in the case of B12 it was 28300 a.u. fluorescence; in that of B2, 553 ± 165 a.u. fluorescence.

The series is the same for the next values; noted with them: protein: commercial; tags: His-tag; chain copies: 2;2; label: 5'-Cy5; hairpin, stem 18-22/36-40, A35 bulge.
In the case of B13, the binding signal was found to be 45000 ± 766 a.u. fluorescence.
